Molecular target: acetylcholine receptor (Homo sapiens, UniProt P02708)
Test: SPR binding affinity (RU) of optimized 5mer/6mer/7mer peptides, Examples 6-7
Details: SPR, peptides tested at 10 μM; 6mer-1 Bottom sequence (Table 11)
In short: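 Response units from SPR give the binding values listed. Each synthesized peptide was run at 10 μM over the receptor.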

Chain of acetylcholine receptor (P02708 21-457): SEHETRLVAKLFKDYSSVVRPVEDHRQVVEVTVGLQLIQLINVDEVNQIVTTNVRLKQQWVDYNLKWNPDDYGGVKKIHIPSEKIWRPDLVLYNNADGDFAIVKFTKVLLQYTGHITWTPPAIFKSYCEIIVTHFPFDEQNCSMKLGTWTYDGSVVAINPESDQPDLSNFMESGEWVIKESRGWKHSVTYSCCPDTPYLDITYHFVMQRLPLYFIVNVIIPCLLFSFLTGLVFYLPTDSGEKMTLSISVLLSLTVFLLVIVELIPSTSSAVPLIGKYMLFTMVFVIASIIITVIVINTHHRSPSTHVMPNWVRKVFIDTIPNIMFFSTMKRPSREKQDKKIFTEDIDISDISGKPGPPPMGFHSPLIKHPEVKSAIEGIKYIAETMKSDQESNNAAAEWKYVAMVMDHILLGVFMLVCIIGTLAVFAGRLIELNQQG

Going from 6mer-1-815 (RRFEMR) to 6mer-1-816 (RKIDFK), the Binding affinity falls from 23 Ru to 14 Ru.

Compared with 6mer-1-817 (RRIMKR), 6mer-1-818 (RKIKAR) is lower in Binding affinity: 16 Ru for the first, 14 Ru for the second.

Compared with 6mer-1-819 (KRMHAK), 6mer-1-820 (KRNDGK) is lower in Binding affinity: 17 Ru for the first, 12 Ru for the second.

Going from 6mer-1-821 (RRTTNR) to 6mer-1-822 (KREPIK), the Binding affinity falls from 22 Ru to 17 Ru.

6mer-1-823 (KRHTGK) and 6mer-1-824 (KKMNIK) are the same in Binding affinity: 12 Ru for the first, 12 Ru for the second.

First: 6mer-1-825 (RKEKWK)
Second: 6mer-1-826 (KKAHMR)
The Binding affinity of the first is lower: 30 Ru for the first, 31 Ru for the second.

Going from 6mer-1-827 (RKKKFR) to 6mer-1-828 (RRPNMK), the Binding affinity falls from 30 Ru to 26 Ru.

Going from 6mer-1-829 (RRIHKK) to 6mer-1-830 (KKTTMK), the Binding affinity rises from 25 Ru to 33 Ru.

Compared with 6mer-1-831 (KKNPWK), 6mer-1-832 (RKYWGK) is lower in Binding affinity: 15 Ru for the first, 12 Ru for the second.

Going from 6mer-1-833 (RRYKNR) to 6mer-1-834 (KRNTIR), the Binding affinity falls from 19 Ru to 17 Ru.

First: 6mer-1-835 (KRTADK)
Second: 6mer-1-836 (RRCMIK)
The Binding affinity of the first is higher: 26 Ru for the first, 22 Ru for the second.

First: 6mer-1-837 (KRDHAK)
Second: 6mer-1-838 (KRNTWK)
The Binding affinity of the first is higher: 19 Ru for the first, 17 Ru for the second.

Going from 6mer-1-839 (KRNWAK) to 6mer-1-840 (RKICNK), the Binding affinity falls from 29 Ru to 12 Ru.

First: 6mer-1-841 (KKDAPR)
Second: 6mer-1-842 (RRFANK)
The Binding affinity of the first is higher: 30 Ru for the first, 11 Ru for the second.

6mer-1-843 (KKKTIK) and 6mer-1-844 (KKPMNR) are the same in Binding affinity: 28 Ru for the first, 28 Ru for the second.

First: 6mer-1-845 (KKIDKK)
Second: 6mer-1-846 (RKDAEK)
The Binding affinity of the first is lower: 23 Ru for the first, 28 Ru for the second.

First: 6mer-1-847 (KKYNHK)
Second: 6mer-1-848 (RKTMFK)
The Binding affinity of the first is higher: 20 Ru for the first, 19 Ru for the second.

First: 6mer-1-849 (KKFNWK)
Second: 6mer-1-850 (RRNPEK)
The Binding affinity of the first is lower: 21 Ru for the first, 29 Ru for the second.

First: 6mer-1-851 (RRYMEK)
Second: 6mer-1-852 (KRASVK)
The Binding affinity of the first is higher: 30 Ru for the first, 19 Ru for the second.

Compared with 6mer-1-853 (KRCNGR), 6mer-1-854 (KKEAVR) is lower in Binding affinity: 30 Ru for the first, 16 Ru for the second.

First: 6mer-1-855 (RKCDVR)
Second: 6mer-1-856 (KRMWFK)
The Binding affinity of the first is lower: 15 Ru for the first, 30 Ru for the second.

Going from 6mer-1-857 (KRPAFK) to 6mer-1-858 (KKKHKR), the Binding affinity rises from 14 Ru to 27 Ru.

First: 6mer-1-859 (RKCMVK)
Second: 6mer-1-860 (RKHWWR)
The Binding affinity of the first is higher: 27 Ru for the first, 22 Ru for the second.

Compared with 6mer-1-861 (KRINIR), 6mer-1-862 (KKHSEK) is higher in Binding affinity: 21 Ru for the first, 32 Ru for the second.

Going from 6mer-1-863 (RRCTER) to 6mer-1-864 (RRTWGR), the Binding affinity rises from 27 Ru to 32 Ru.

Going from 6mer-1-865 (KKMTAR) to 6mer-1-866 (KRCHFR), the Binding affinity rises from 21 Ru to 26 Ru.

Going from 6mer-1-867 (KRIPMR) to 6mer-1-868 (KKHHAR), the Binding affinity falls from 25 Ru to 14 Ru.

First: 6mer-1-869 (KRKDER)
Second: 6mer-1-870 (KRMSHR)
The Binding affinity of the first is lower: 22 Ru for the first, 25 Ru for the second.

Going from 6mer-1-871 (KREWDR) to 6mer-1-872 (KRPCHR), the Binding affinity falls from 30 Ru to 23 Ru.

Compared with 6mer-1-873 (KRIWAR), 6mer-1-874 (KRANHK) is lower in Binding affinity: 23 Ru for the first, 18 Ru for the second.

Going from 6mer-1-875 (KKTNGR) to 6mer-1-876 (RKYWAR), the Binding affinity falls from 33 Ru to 19 Ru.

Going from 6mer-1-877 (KKPEWR) to 6mer-1-878 (RRKDNR), the Binding affinity rises from 19 Ru to 27 Ru.

First: 6mer-1-879 (RRYNNR)
Second: 6mer-1-880 (KRPMDK)
The Binding affinity of the first is higher: 27 Ru for the first, 21 Ru for the second.

Going from 6mer-1-881 (KKHMER) to 6mer-1-882 (KKPAMR), the Binding affinity rises from 20 Ru to 25 Ru.

Compared with 6mer-1-883 (KKIDDK), 6mer-1-884 (KRYTKR) is higher in Binding affinity: 21 Ru for the first, 26 Ru for the second.

6mer-1-885 (RRKTPR) and 6mer-1-886 (RKFSNK) are the same in Binding affinity: 17 Ru for the first, 17 Ru for the second.

First: 6mer-1-887 (KRINHR)
Second: 6mer-1-888 (KKTANK)
The Binding affinity of the first is lower: 30 Ru for the first, 33 Ru for the second.

Compared with 6mer-1-889 (KRIMEK), 6mer-1-890 (RRTSNK) is lower in Binding affinity: 25 Ru for the first, 18 Ru for the second.

Going from 6mer-1-891 (RKMAFR) to 6mer-1-892 (RKTEKR), the Binding affinity rises from 13 Ru to 20 Ru.

Compared with 6mer-1-893 (RRIPHR), 6mer-1-894 (RKCWWR) is lower in Binding affinity: 22 Ru for the first, 18 Ru for the second.

Compared with 6mer-1-895 (KKDSKK), 6mer-1-896 (KRDWIK) is lower in Binding affinity: 28 Ru for the first, 11 Ru for the second.

First: 6mer-1-897 (RRPSIK)
Second: 6mer-1-898 (RKATKR)
The Binding affinity of the first is lower: 24 Ru for the first, 31 Ru for the second.

First: 6mer-1-899 (KRMKWK)
Second: 6mer-1-900 (RRDTGR)
The Binding affinity of the first is higher: 31 Ru for the first, 24 Ru for the second.

First: 6mer-1-901 (RKPNGR)
Second: 6mer-1-902 (RRDKMK)
The Binding affinity of the first is lower: 35 Ru for the first, 39 Ru for the second.

Going from 6mer-1-903 (KKHKPR) to 6mer-1-904 (KKDTKR), the Binding affinity falls from 37 Ru to 31 Ru.

Going from 6mer-1-905 (RRICER) to 6mer-1-906 (KKINGK), the Binding affinity falls from 36 Ru to 30 Ru.

First: 6mer-1-907 (RKPAWR)
Second: 6mer-1-908 (KKFMVR)
The Binding affinity of the first is higher: 42 Ru for the first, 37 Ru for the second.

Compared with 6mer-1-909 (RKFCMR), 6mer-1-910 (KRPTIR) is higher in Binding affinity: 33 Ru for the first, 42 Ru for the second.

First: 6mer-1-911 (KRCAAR)
Second: 6mer-1-912 (KKETFR)
The Binding affinity of the first is lower: 28 Ru for the first, 33 Ru for the second.

Going from 6mer-1-913 (KRFWWK) to 6mer-1-914 (RRKCVR), the Binding affinity rises from 27 Ru to 39 Ru.

Compared with 6mer-1-915 (RKDTWK), 6mer-1-916 (RRNAAK) is higher in Binding affinity: 27 Ru for the first, 33 Ru for the second.

First: 6mer-1-917 (KRADDK)
Second: 6mer-1-918 (RRESMR)
The Binding affinity of the first is lower: 27 Ru for the first, 33 Ru for the second.

Compared with 6mer-1-919 (RKDHIK), 6mer-1-920 (RRPAMR) is higher in Binding affinity: 26 Ru for the first, 40 Ru for the second.

Compared with 6mer-1-921 (RKFWHR), 6mer-1-922 (RRDWGR) is lower in Binding affinity: 36 Ru for the first, 34 Ru for the second.

Going from 6mer-1-923 (RRASDR) to 6mer-1-924 (RKFNWR), the Binding affinity falls from 43 Ru to 29 Ru.

First: 6mer-1-925 (KKAMHR)
Second: 6mer-1-926 (KRESDR)
The Binding affinity of the first is higher: 42 Ru for the first, 40 Ru for the second.

Going from 6mer-1-927 (KRESHR) to 6mer-1-928 (KRYCPK), the Binding affinity falls from 37 Ru to 30 Ru.

First: 6mer-1-929 (RRCDHK)
Second: 6mer-1-930 (KKESNK)
The Binding affinity of the first is lower: 25 Ru for the first, 43 Ru for the second.

First: 6mer-1-931 (KKNWPR)
Second: 6mer-1-932 (KRFEFK)
The Binding affinity of the first is lower: 35 Ru for the first, 38 Ru for the second.

Going from 6mer-1-933 (RRPWNR) to 6mer-1-934 (KRPPGK), the Binding affinity rises from 28 Ru to 39 Ru.

First: 6mer-1-935 (RKKDIK)
Second: 6mer-1-936 (RKETDR)
The Binding affinity of the first is higher: 40 Ru for the first, 36 Ru for the second.

First: 6mer-1-937 (RKPTNR)
Second: 6mer-1-938 (KKIAWK)
The Binding affinity of the first is higher: 34 Ru for the first, 28 Ru for the second.

First: 6mer-1-939 (KRNDFK)
Second: 6mer-1-940 (RKPEDR)
The Binding affinity of the first is higher: 41 Ru for the first, 29 Ru for the second.

Going from 6mer-1-941 (RKTPKK) to 6mer-1-942 (RRMMVR), the Binding affinity rises from 29 Ru to 37 Ru.

Compared with 6mer-1-943 (KKEHDK), 6mer-1-944 (RKPAGK) is lower in Binding affinity: 43 Ru for the first, 25 Ru for the second.

6mer-1-945 (RKTSIK) and 6mer-1-946 (RRCEPR) are the same in Binding affinity: 31 Ru for the first, 31 Ru for the second.

Compared with 6mer-1-947 (KRTKGR), 6mer-1-948 (RKFTVR) is lower in Binding affinity: 31 Ru for the first, 24 Ru for the second.

Compared with 6mer-1-949 (RKEMPR), 6mer-1-950 (RKEDKR) is lower in Binding affinity: 37 Ru for the first, 29 Ru for the second.

First: 6mer-1-951 (RKAMDK)
Second: 6mer-1-952 (KRHDKK)
The Binding affinity of the first is higher: 29 Ru for the first, 28 Ru for the second.

Going from 6mer-1-953 (KRTNGK) to 6mer-1-954 (KKAKGR), the Binding affinity rises from 26 Ru to 41 Ru.

Compared with 6mer-1-955 (RKECFK), 6mer-1-956 (KRKSNK) is higher in Binding affinity: 23 Ru for the first, 34 Ru for the second.

6mer-1-957 (KKPPDK) and 6mer-1-958 (KRYAGR) are the same in Binding affinity: 43 Ru for the first, 43 Ru for the second.

Compared with 6mer-1-959 (KKIWFR), 6mer-1-960 (KKCPFR) is lower in Binding affinity: 36 Ru for the first, 34 Ru for the second.

Compared with 6mer-1-961 (RRTWAR), 6mer-1-962 (KKNCDK) is lower in Binding affinity: 122 Ru for the first, 42 Ru for the second.

Going from 6mer-1-963 (RREEDK) to 6mer-1-964 (RKFKNK), the Binding affinity rises from 29 Ru to 42 Ru.

First: 6mer-1-965 (KRIWDK)
Second: 6mer-1-966 (RRNSWK)
The Binding affinity of the first is higher: 36 Ru for the first, 22 Ru for the second.

Going from 6mer-1-967 (RRTEDR) to 6mer-1-968 (RREDFR), the Binding affinity rises from 24 Ru to 39 Ru.

Compared with 6mer-1-969 (RKDHWR), 6mer-1-970 (RRCCAR) is higher in Binding affinity: 33 Ru for the first, 38 Ru for the second.

First: 6mer-1-971 (RKIEMK)
Second: 6mer-1-972 (RRHTHK)
The Binding affinity of the first is lower: 32 Ru for the first, 43 Ru for the second.

First: 6mer-1-973 (RRDHVK)
Second: 6mer-1-974 (RKPAHK)
The Binding affinity of the first is lower: 25 Ru for the first, 27 Ru for the second.

Going from 6mer-1-975 (RKASIK) to 6mer-1-976 (RKEMIK), the Binding affinity rises from 22 Ru to 40 Ru.

Reference: US20250011363A1, “OPTIMIZED SHORTENED PEPTIDE THAT BINDS TO ACETYLCHOLINE RECEPTOR, AND USE THEREOF” (SKINMED CO., LTD., priority 2021, published 2025)
